The values below come from IntAct's records for PubMed 25173175.

The labels stand for the following.
B1: Cohesin subunit SA-2 (Homo sapiens), Q8N3U4 (parent)
chain: MIAAPEIPTDFNLLQESETHFSSDTDFEDIEGKNQKQGKGKTCKKGKKGPAEKGKGGNGGGKPPSGPNRMNGHHQQNGVENMMLFEVVKMGKSAMQSVVDDWIESYKHDRDIALLDLINFFIQCSGCKGVVTAEMFRHMQNSEIIRKMTEEFDEDSGDYPLTMAGPQWKKFKSSFCEFIGVLVRQCQYSIIYDEYMMDTVISLLTGLSDSQVRAFRHTSTLAAMKLMTALVNVALNLSINMDNTQRQYEAERNKMIGKRANERLELLLQKRKELQENQDEIENMMNAIFKGVFVHRYRDAIAEIRAICIEEIGIWMKMYSDAFLNDSYLKYVGWTMHDKQGEVRLKCLTALQGLYYNKELNSKLELFTSRFKDRIVSMTLDKEYDVAVQAIKLLTLVLQSSEEVLTAEDCENVYHLVYSAHRPVAVAAGEFLYKKLFSRRDPEEDGMMKRRGRQGPNANLVKTLVFFFLESELHEHAAYLVDSMWDCATELLKDWECMNSLLLEEPLSGEEALTDRQESALIEIMLCTIRQAAECHPPVGRGTGKRVLTAKEKKTQLDDRTKITELFAVALPQLLAKYSVDAEKVTNLLQLPQYFDLEIYTTGRLEKHLDALLRQIRNIVEKHTDTDVLEACSKTYHALCNEEFTIFNRVDISRSQLIDELADKFNRLLEDFLQEGEEPDEDDAYQVLSTLKRITAFHNAHDLSKWDLFACNYKLLKTGIENGDMPEQIVIHALQCTHYVILWQLAKITESSSTKEDLLRLKKQMRVFCQICQHYLTNVNTTVKEQAFTILCDILMIFSHQIMSGGRDMLEPLVYTPDSSLQSELLSFILDHVFIEQDDDNNSADGQQEDEASKIEALHKRRNLLAAFCKLIVYTVVEMNTAADIFKQYMKYYNDYGDIIKETMSKTRQIDKIQCAKTLILSLQQLFNEMIQENGYNFDRSSSTFSGIKELARRFALTFGLDQLKTREAIAMLHKDGIEFAFKEPNPQGESHPPLNLAFLDILSEFSSKLLRQDKRTVYVYLEKFMTFQMSLRREDVWLPLMSYRNSLLAGGDDDTMSVISGISSRGSTVRSKKSKPSTGKRKVVEGMQLSLTEESSSSDSMWLSREQTLHTPVMMQTPQLTSTIMREPKRLRPEDSFMSVYPMQTEHHQTPLDYNRRGTSLMEDDEEPIVEDVMMSSEGRIEDLNEGMDFDTMDIDLPPSKNRRERTELKPDFFDPASIMDESVLGVSMF
partner: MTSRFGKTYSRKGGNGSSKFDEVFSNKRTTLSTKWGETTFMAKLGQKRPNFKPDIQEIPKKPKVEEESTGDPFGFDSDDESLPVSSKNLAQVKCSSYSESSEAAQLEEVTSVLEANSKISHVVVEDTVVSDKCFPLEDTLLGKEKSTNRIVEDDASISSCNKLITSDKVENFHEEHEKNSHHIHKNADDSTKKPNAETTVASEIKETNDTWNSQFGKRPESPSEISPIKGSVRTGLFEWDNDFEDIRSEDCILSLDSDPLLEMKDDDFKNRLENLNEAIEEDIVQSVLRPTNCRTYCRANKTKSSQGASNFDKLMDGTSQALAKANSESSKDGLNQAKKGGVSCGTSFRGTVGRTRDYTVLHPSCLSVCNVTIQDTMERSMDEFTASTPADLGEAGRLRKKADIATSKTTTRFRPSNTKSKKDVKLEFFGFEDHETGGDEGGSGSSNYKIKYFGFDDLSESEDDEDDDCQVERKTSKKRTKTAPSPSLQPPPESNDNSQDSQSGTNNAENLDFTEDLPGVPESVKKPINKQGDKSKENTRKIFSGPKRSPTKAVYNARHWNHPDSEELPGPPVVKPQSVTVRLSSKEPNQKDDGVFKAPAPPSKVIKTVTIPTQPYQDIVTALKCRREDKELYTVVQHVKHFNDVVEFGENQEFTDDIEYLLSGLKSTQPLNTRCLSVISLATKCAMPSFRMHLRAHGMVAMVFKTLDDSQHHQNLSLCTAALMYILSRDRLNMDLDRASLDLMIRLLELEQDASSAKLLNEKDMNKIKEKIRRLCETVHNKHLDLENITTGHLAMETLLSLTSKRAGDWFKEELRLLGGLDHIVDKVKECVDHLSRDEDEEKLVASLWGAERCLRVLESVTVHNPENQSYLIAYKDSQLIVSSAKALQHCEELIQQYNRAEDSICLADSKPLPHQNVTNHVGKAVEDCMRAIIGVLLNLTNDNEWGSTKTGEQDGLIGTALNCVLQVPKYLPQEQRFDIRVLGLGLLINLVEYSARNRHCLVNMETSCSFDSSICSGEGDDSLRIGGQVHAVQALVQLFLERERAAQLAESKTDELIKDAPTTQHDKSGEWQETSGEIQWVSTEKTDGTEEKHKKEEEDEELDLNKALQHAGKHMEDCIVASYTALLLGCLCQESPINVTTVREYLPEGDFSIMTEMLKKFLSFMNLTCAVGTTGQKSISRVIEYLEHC
B2: Double-strand-break repair protein rad21 homolog (Homo sapiens), O60216 (parent)
chain: MFYAHFVLSKRGPLAKIWLAAHWDKKLTKAHVFECNLESSVESIISPKVKMALRTSGHLLLGVVRIYHRKAKYLLADCNEAFIKIKMAFRPGVVDLPEENREAAYNAITLPEEFHDFDQPLPDLDDIDVAQQFSLNQSRVEEITMREEVGNISILQENDFGDFGMDDREIMREGSAFEDDDMLVSTTTSNLLLESEQSTSNLNEKINHLEYEDQYKDDNFGEGNDGGILDDKLISNNDGGIFDDPPALSEAGVMLPEQPAHDDMDEDDNVSMGGPDSPDSVDPVEPMPTMTDQTTLVPNEEEAFALEPIDITVKETKAKRKRKLIVDSVKELDSKTIRAQLSDYSDIVTTLDLAPPTKKLMMWKETGGVEKLFSLPAQPLWNNRLLKLFTRCLTPLVPEDLRKRRKGGEADNLDEFLKEFENPEVPREDQQQQHQQRDVIDEPIIEEPSRLQESVMEASRTNIDESAMPPPPPQGVKRKAGQIDPEPVMPPQQVEQMEIPPVELPPEEPPNICQLIPELELLPEKEKEKEKEKEDDEEEEDEDASGGDQDQEERRWNKRTQQMLHGLQRALAKTGAESISLLELCRNTNRKQAAAKFYSFLVLKKQQAIELTQEEPYSDIIATPGPRFHII
partner: B1 chain
B3: Cohesin subunit SA-2 (Homo sapiens), Q8N3U4 (parent)
chain: B1 chain
partner: B2 chain

In the first assay the parent is B1. The settings on record: with wapl_human WAPL.
Consider K330E, for which the “effect of a mutation on the interaction” value is “disrupting interaction strength”.

For the variant D326K, the “effect of a mutation on the interaction” value was “disrupting interaction strength”.

On to K290E, for which the “effect of a mutation on the interaction” value is “disrupting interaction strength”.

On to W334A, for which the “effect of a mutation on the interaction” value is “decreasing interaction strength”.

In the next assay the parent is B2. Particulars: with stag2_human STAG2, Q8N3U4.
For the variant L385A;L388A;F389A, the “effect of a mutation on the interaction” value is reported as “disrupting interaction strength”.

The variants in a further assay derive from B2. Particulars: with stag2_human STAG2, Q8N3U4. This is another data set of the same source.
As for D327K, the “effect of a mutation on the interaction” value is given as “decreasing interaction strength”.

The variants in a further assay derive from B3. Particulars: with rad21_human RAD21, O60216.
Turning to D793K, the “effect of a mutation on the interaction” value is given as “disrupting interaction strength”.
